# Experimental data from article PMC2120552.
# “And” between values parts separate entries of the source, which are not always exact repeats. Equal values may be shown once.
# Target: synthetic beta1 peptide, identical in sequence to the complete cytoplasmic domain of the beta1 integrin subunit
# Experiment: pull-down
substance,measurement,value
alpha-actinin (from UniProt P05094 1-893) (natural protein),percent of the protein in the lysate bound,10% and > 10%
